Measurements: paper PMC12749989, “Conformational plasticity across phylogenetic clusters of RND multidrug efflux pumps and its impact on substrate specificity” (Nature Communications, 2025)

Experiments:
[1] = target: K. pneumoniae OqxB (Klebsiella pneumoniae); assay: cryo-EM structure; single-particle cryo-EM of AcrB or OqxB reconstituted in detergent-free salipro nanodiscs (saposinA, E. coli total lipids), 20 mM Tris pH 7.5, 150 mM NaCl
[2] = target: K. pneumoniae OqxB (Klebsiella pneumoniae); assay: crystal structure; detergent-solubilised (DDM) OqxB; sitting drop, 25 °C, 12% PEG4000, 0.2 M MgCl2, 100 mM ADA pH 6.5
[3] = target: the molecule itself; assay: cryo-EM structure; single-particle cryo-EM of DDM-solubilised AcrB; trimer composition from the classified monomers
[4] = target: the molecule itself; assay: crystal structure; DDM-solubilised AcrB variants mixed with DARPins 1:2, excess DARPin removed by SEC (20 mM Tris pH 7.5, 150 mM NaCl, 0.03 % DDM); hanging drop, 18 °C; with 2 mM minocycline or apo
[5] = target: the molecule itself; assay: cryo-EM structure; single-particle cryo-EM of AcrB or OqxB reconstituted in detergent-free salipro nanodiscs (saposinA, E. coli total lipids), 20 mM Tris pH 7.5, 150 mM NaCl

K. pneumoniae OqxB (natural protein)
stoichiometry N [1]: 3
stoichiometry N [2]: 3

B1: E. coli AcrB V612W (natural protein)
chain: MPNFFIDRPIFAWVIAIIIMLAGGLAILKLPVAQYPTIAPPAVTISASYPGADAKTVQDTVTQVIEQNMNGIDNLMYMSSNSDSTGTVQITLTFESGTDADIAQVQVQNKLQLAMPLLPQEVQQQGVSVEKSSSSFLMVVGVINTDGTMTQEDISDYVAANMKDAISRTSGVGDVQLFGSQYAMRIWMNPNELNKFQLTPVDVITAIKAQNAQVAAGQLGGTPPVKGQQLNASIIAQTRLTSTEEFGKILLKVNQDGSRVLLRDVAKIELGGENYDIIAEFNGQPASGLGIKLATGANALDTAAAIRAELAKMEPFFPSGLKIVYPYDTTPFVKISIHEVVKTLVEAIILVFLVMYLFLQNFRATLIPTIAVPVVLLGTFAVLAAFGFSINTLTMFGMVLAIGLLVDDAIVVVENVERVMAEEGLPPKEATRKSMGQIQGALVGIAMVLSAVFVPMAFFGGSTGAIYRQFSITIVSAMALSVLVALILTPALCATMLKPIAKGDHGEGKKGFFGWFNRMFEKSTHHYTDSVGGILRSTGRYLVLYLIIVVGMAYLFVRLPSSFLPDEDQGVFMTMVQLPAGATQERTQKVLNEVTHYYLTKEKNNVESVFAWNGFGFAGRGQNTGIAFVSLKDWADRPGEENKVEAITMRATRAFSQIKDAMVFAFNLPAIVELGTATGFDFELIDQAGLGHEKLTQARNQLLAEAAKHPDMLTSVRPNGLEDTPQFKIDIDQEKAQALGVSINDINTTLGAAWGGSYVNDFIDRGRVKKVYVMSEAKYRMLPDDIGDWYVRAADGQMVPFSAFSSSRWEYGSPRLERYNGLPSMEILGQAAPGKSTGEAMELMEQLASKLPTGVGYDWTGMSYQERLSGNQAPSLYAISLIVVFLCLAALYESWSIPFSVMLVVPLGVIGALLAATFRGLTNDVYFQVGLLTTIGLSAKNAILIVEFAKDLMDKEGKGLIEATLDAVRMRLRPILMTSLAFILGVMPLVISTGAGSGAQNAVGTGVMGGMVTATVLAIFFVPVFFVVVRRRFSRKNEDIEHSHTVDHH
notes: Homotrimer; source: E. coli C43 (DE3) ∆acrB, purified (Ni-NTA, SEC), DDM-solubilised
stoichiometry N [3]: 3

B2: E. coli AcrB V612N (natural protein)
chain: MPNFFIDRPIFAWVIAIIIMLAGGLAILKLPVAQYPTIAPPAVTISASYPGADAKTVQDTVTQVIEQNMNGIDNLMYMSSNSDSTGTVQITLTFESGTDADIAQVQVQNKLQLAMPLLPQEVQQQGVSVEKSSSSFLMVVGVINTDGTMTQEDISDYVAANMKDAISRTSGVGDVQLFGSQYAMRIWMNPNELNKFQLTPVDVITAIKAQNAQVAAGQLGGTPPVKGQQLNASIIAQTRLTSTEEFGKILLKVNQDGSRVLLRDVAKIELGGENYDIIAEFNGQPASGLGIKLATGANALDTAAAIRAELAKMEPFFPSGLKIVYPYDTTPFVKISIHEVVKTLVEAIILVFLVMYLFLQNFRATLIPTIAVPVVLLGTFAVLAAFGFSINTLTMFGMVLAIGLLVDDAIVVVENVERVMAEEGLPPKEATRKSMGQIQGALVGIAMVLSAVFVPMAFFGGSTGAIYRQFSITIVSAMALSVLVALILTPALCATMLKPIAKGDHGEGKKGFFGWFNRMFEKSTHHYTDSVGGILRSTGRYLVLYLIIVVGMAYLFVRLPSSFLPDEDQGVFMTMVQLPAGATQERTQKVLNEVTHYYLTKEKNNVESVFANNGFGFAGRGQNTGIAFVSLKDWADRPGEENKVEAITMRATRAFSQIKDAMVFAFNLPAIVELGTATGFDFELIDQAGLGHEKLTQARNQLLAEAAKHPDMLTSVRPNGLEDTPQFKIDIDQEKAQALGVSINDINTTLGAAWGGSYVNDFIDRGRVKKVYVMSEAKYRMLPDDIGDWYVRAADGQMVPFSAFSSSRWEYGSPRLERYNGLPSMEILGQAAPGKSTGEAMELMEQLASKLPTGVGYDWTGMSYQERLSGNQAPSLYAISLIVVFLCLAALYESWSIPFSVMLVVPLGVIGALLAATFRGLTNDVYFQVGLLTTIGLSAKNAILIVEFAKDLMDKEGKGLIEATLDAVRMRLRPILMTSLAFILGVMPLVISTGAGSGAQNAVGTGVMGGMVTATVLAIFFVPVFFVVVRRRFSRKNEDIEHSHTVDHH
notes: as for B1
stoichiometry N [4]: 3

B3: E. coli AcrB V612F (natural protein)
chain: MPNFFIDRPIFAWVIAIIIMLAGGLAILKLPVAQYPTIAPPAVTISASYPGADAKTVQDTVTQVIEQNMNGIDNLMYMSSNSDSTGTVQITLTFESGTDADIAQVQVQNKLQLAMPLLPQEVQQQGVSVEKSSSSFLMVVGVINTDGTMTQEDISDYVAANMKDAISRTSGVGDVQLFGSQYAMRIWMNPNELNKFQLTPVDVITAIKAQNAQVAAGQLGGTPPVKGQQLNASIIAQTRLTSTEEFGKILLKVNQDGSRVLLRDVAKIELGGENYDIIAEFNGQPASGLGIKLATGANALDTAAAIRAELAKMEPFFPSGLKIVYPYDTTPFVKISIHEVVKTLVEAIILVFLVMYLFLQNFRATLIPTIAVPVVLLGTFAVLAAFGFSINTLTMFGMVLAIGLLVDDAIVVVENVERVMAEEGLPPKEATRKSMGQIQGALVGIAMVLSAVFVPMAFFGGSTGAIYRQFSITIVSAMALSVLVALILTPALCATMLKPIAKGDHGEGKKGFFGWFNRMFEKSTHHYTDSVGGILRSTGRYLVLYLIIVVGMAYLFVRLPSSFLPDEDQGVFMTMVQLPAGATQERTQKVLNEVTHYYLTKEKNNVESVFAFNGFGFAGRGQNTGIAFVSLKDWADRPGEENKVEAITMRATRAFSQIKDAMVFAFNLPAIVELGTATGFDFELIDQAGLGHEKLTQARNQLLAEAAKHPDMLTSVRPNGLEDTPQFKIDIDQEKAQALGVSINDINTTLGAAWGGSYVNDFIDRGRVKKVYVMSEAKYRMLPDDIGDWYVRAADGQMVPFSAFSSSRWEYGSPRLERYNGLPSMEILGQAAPGKSTGEAMELMEQLASKLPTGVGYDWTGMSYQERLSGNQAPSLYAISLIVVFLCLAALYESWSIPFSVMLVVPLGVIGALLAATFRGLTNDVYFQVGLLTTIGLSAKNAILIVEFAKDLMDKEGKGLIEATLDAVRMRLRPILMTSLAFILGVMPLVISTGAGSGAQNAVGTGVMGGMVTATVLAIFFVPVFFVVVRRRFSRKNEDIEHSHTVDHH
notes: Homotrimer; source: E. coli C43 (DE3) ∆acrB, purified (Ni-NTA, SEC); DDM-solubilised, in cyclohexyl-n-hexyl-β-D-maltoside (apo crystals) or reconstituted in salipro nanodiscs
stoichiometry N [5]: 3
